Experimental data taken from patent publication US20250388673A1 (HIFIBIO, published 2025).

T1: human BTLA (human, UniProt Q7Z6A9 31-289)
T1 construct: also called hBTLA; HEK293.hBTLA
T1 sequence: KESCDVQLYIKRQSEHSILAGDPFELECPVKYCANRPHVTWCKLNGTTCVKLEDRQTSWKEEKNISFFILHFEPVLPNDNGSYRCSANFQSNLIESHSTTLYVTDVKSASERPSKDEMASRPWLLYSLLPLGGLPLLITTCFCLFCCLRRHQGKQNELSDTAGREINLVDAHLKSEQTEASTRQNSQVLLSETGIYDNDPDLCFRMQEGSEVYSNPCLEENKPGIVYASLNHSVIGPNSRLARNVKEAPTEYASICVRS


Biological target: T1, human BTLA
Test: flow cytometry, HEK293 cells overexpressing human BTLA
Description: HEK293 cells overexpressing human BTLA and Expi293 cells overexpressing cynomolus BTLA were incubated with different concentrations of humanized anti-BTLA antibodies. Anti-BTLA antibody binding to target cells were quantified with an AF647-conjugated anti-human IgG Fc secondary antibody by flow cytometry.

| binding result | Binder |
| --- | --- |
| binds | HFB6-4-hG1 (human-mouse chimeric monoclonal antibody) (antibody, human IgG1, kappa, V domains shown, also called HFB6-4 parental antibody) VH: EVQLQQSGAELVNPGASVKLSCTTSGFNIKDTYIHWVKQRPEQGLEWIGRNDPANGNTKYDPKFQGKATITADTSSSTAYLQLSSLTSEDTAVYYCASYEGYYERFGYWGQGTLVTVSA VL: not shown |
| binds | HFB6-5hz9-hG1 (antibody, human IgG1, V domains shown, Humanized variant of HFB6-5, human IgG1 (hG1)) VH: EVQLVESGGGLVQPGRSLRLSCTASGVNIKDTYMYWVRQAPGKGLEWVGRIDPANGYTRYTASFKGRATISADGSKSIAYLQMNSLKTEDTAVYYCAVYDGYYESFDVWGQGTLVTVSS VL: DVVMTQSPLSLPVTLGQPASISCRSSQSLLDSDGKTYLNWLQQRPGQSPRRLIYLVSKRDSGVPDRFSGSGSGTDFTLKISRVEAEDLGVYYCWQGTLFPRTFGQGTKLEIK |
| binds | HFB6-5hz12-hG1 (antibody, human IgG1, V domains shown, Humanized variant of HFB6-5, human IgG1 (hG1)) VH: EVQLVQSGAEVKKPGESLKISCKGSGVNIKDTYMYWVRQMPGKGLEWIGRIDPANGYTRYSPSFQGQVTISADKSISTAYLQLSSLKASDTAMYYCAVYDGYYESFDVWGQGTLVTVSS VL: DVVMTQSPLSLPVTLGQPASISCRSSQSLLDSDGKTYLNWLQQRPGQSPRRLIYLVSKRDSGVPDRFSGSGSGTDFTLKISRVEAEDLGVYYCWQGTLFPRTFGQGTKLEIK |
| binds | HFB6-5hz11-hG1 (antibody, human IgG1, V domains shown, Humanized variant of HFB6-5, human IgG1 (hG1)) VH: QVQLQESGPGLVKPSGTLSLTCAASGVNIKDTYMYWVRQPPGKGLEWIGRIDPANGYTRYNPSFKSRATISADKSKNQASLKLSSVTAADTAVYYCAVYDGYYESFDVWGQGTLVTVSS VL: DVVMTQSPLSLPVTLGQPASISCRSSQSLLDSDGKTYLNWLQQRPGQSPRRLIYLVSKRDSGVPDRFSGSGSGTDFTLKISRVEAEDLGVYYCWQGTLFPRTFGQGTKLEIK |
| binds | HFB6-5hz15-hG1 (antibody, human IgG1, V domains shown, Humanized variant of HFB6-5, human IgG1 (hG1)) VH: EVQLVESGGGLVQPGRSLRLSCTASGVNIKDTYMYWVRQAPGKGLEWVGRIDPANGYTRYTASFKGRATISADGSKSIAYLQMNSLKTEDTAVYYCAVYDGYYESFDVWGQGTLVTVSS VL: EIVLTQSPGTLSVSPGERATISCRSSQSLLDSDGKTYLNWLQQKPGQAPRRLIYLVSKRDTGVPDRFSGSGSGTDFTLTISRVEPEDFAVYYCWQGTLFPRTFGQGTKLEIK |
| binds | HFB6-5hz10-hG1 (antibody, human IgG1, V domains shown, Humanized variant of HFB6-5, human IgG1 (hG1)) VH: EVQLVESGGGLVQPGGSLKLSCAASGVNIKDTYMYWVRQASGKGLEWIGRIDPANGYTRYAASFKGRATISADDSKNTAYLQLNSLKTEDTAVYYCAVYDGYYESFDVWGQGTLVTVSS VL: DVVMTQSPLSLPVTLGQPASISCRSSQSLLDSDGKTYLNWLQQRPGQSPRRLIYLVSKRDSGVPDRFSGSGSGTDFTLKISRVEAEDLGVYYCWQGTLFPRTFGQGTKLEIK |
| binds | HFB6-4hz21-hG1 (antibody, human IgG1, V domains shown, Humanized variant of HFB6-4, human IgG1 (hG1)) VH: EVQLVESGGGLVQPGRSLRLSCTTSGFNIKDTYIHWFRQAPGKGLEWVGRNDPANGNTKYTASFKGRATISADGSKSIAYLQMNSLKTEDTAVYYCASYEGYYERFGYWGQGTLVTVSS VL: DIVMTQSPDSLAVSLGERATINCKSSQSLLDRDGKTYLNWLQQKPGQSPKRLIYLVSKLDSGVPDRFSGSGSGTDFTLTISSLQAEDLAVYYCWQDTHFPYTFGQGTKLEIK |
| binds | HFB6-4hz24-hG1 (antibody, human IgG1, V domains shown, Humanized variant of HFB6-4, human IgG1 (hG1)) VH: EVQLVQSGAEVKKPGESLKISCKTSGFNIKDTYIHWVRQMPGKGLEWIGRNDPANGNTKYSPSFQGQVTISADKSISTAYLQLSSLKASDTAMYYCASYEGYYERFGYWGQGTLVTVSS VL: DIVMTQSPDSLAVSLGERATINCKSSQSLLDRDGKTYLNWLQQKPGQSPKRLIYLVSKLDSGVPDRFSGSGSGTDFTLTISSLQAEDLAVYYCWQDTHFPYTFGQGTKLEIK |
| binds | HFB6-4hz23-hG1 (antibody, human IgG1, V domains shown, Humanized variant of HFB6-4, human IgG1 (hG1)) VH: QVQLQESGPGLVKPSGTLSLTCAVSGFNIKDTYIHWVRQPPGKGLEWIGRNDPANGNTKYNPSFKSRATISADKSKNQASLKLSSVTAADTAVYYCASYEGYYERFGYWGQGTLVTVSS VL: DIVMTQSPDSLAVSLGERATINCKSSQSLLDRDGKTYLNWLQQKPGQSPKRLIYLVSKLDSGVPDRFSGSGSGTDFTLTISSLQAEDLAVYYCWQDTHFPYTFGQGTKLEIK |
| binds | HFB6-4hz22-hG1 (antibody, human IgG1, V domains shown, Humanized variant of HFB6-4, human IgG1 (hG1)) VH: EVQLVESGGGLVQPGGSLKLSCATSGFNIKDTYIHWVRQASGKGLEWIGRNDPANGNTKYAASFKGRATISADDSKNTAYLQLNSLKTEDTAVYYCASYEGYYERFGYWGQGTLVTVSS VL: DIVMTQSPDSLAVSLGERATINCKSSQSLLDRDGKTYLNWLQQKPGQSPKRLIYLVSKLDSGVPDRFSGSGSGTDFTLTISSLQAEDLAVYYCWQDTHFPYTFGQGTKLEIK |
| binds | HFB6-5hz1-hG1 (antibody, human IgG1, V domains shown, Humanized variant of HFB6-5, human IgG1 (hG1)) VH: QVQLVQSGAEVKKPGSSVKVSCKASGVNIKDTYMYWVRQAPGQGLEWIGRIDPANGYARYAQKFQGRATITADESTSTAYMELSSLRSEDTAVYYCAVYDGYYESFDVWGQGTLVTVSS VL: DIQMTQSPSSLSASVGDRVTITCRSSQSLLDSDGKSYLNWLQQKPGKAPKRLIYLVSKLDSGVPSRFSGSGSGTDFTLTISSLQPEDFATYYCWQGTLFPRTFGQGTKLEIK |
| binds | HFB6-5hz6-hG1 (antibody, human IgG1, V domains shown, Humanized variant of HFB6-5, human IgG1 (hG1)) VH: EVQLVQSGAEVKKPGESLKISCKGSGVNIKDTYMYWVRQMPGKGLEWIGRIDPANGYTRYSPSFQGQVTISADKSISTAYLQLSSLKASDTAMYYCAVYDGYYESFDVWGQGTLVTVSS VL: DIQMTQSPSSLSASVGDRVTITCRSSQSLLDSDGKSYLNWLQQKPGKAPKRLIYLVSKLDSGVPSRFSGSGSGTDFTLTISSLQPEDFATYYCWQGTLFPRTFGQGTKLEIK |
| binds | HFB6-5hz5-hG1 (antibody, human IgG1, V domains shown, Humanized variant of HFB6-5, human IgG1 (hG1)) VH: QVQLQESGPGLVKPSGTLSLTCAASGVNIKDTYMYWVRQPPGKGLEWIGRIDPANGYTRYNPSFKSRATISADKSKNQASLKLSSVTAADTAVYYCAVYDGYYESFDVWGQGTLVTVSS VL: DIQMTQSPSSLSASVGDRVTITCRSSQSLLDSDGKSYLNWLQQKPGKAPKRLIYLVSKLDSGVPSRFSGSGSGTDFTLTISSLQPEDFATYYCWQGTLFPRTFGQGTKLEIK |
| binds | HFB6-5hz3-hG1 (antibody, human IgG1, V domains shown, Humanized variant of HFB6-5, human IgG1 (hG1)) VH: EVQLVESGGGLVQPGRSLRLSCTASGVNIKDTYMYWVRQAPGKGLEWVGRIDPANGYTRYTASFKGRATISADGSKSIAYLQMNSLKTEDTAVYYCAVYDGYYESFDVWGQGTLVTVSS VL: DIQMTQSPSSLSASVGDRVTITCRSSQSLLDSDGKSYLNWLQQKPGKAPKRLIYLVSKLDSGVPSRFSGSGSGTDFTLTISSLQPEDFATYYCWQGTLFPRTFGQGTKLEIK |
| binds | HFB6-5hz7-hG1 (antibody, human IgG1, V domains shown, Humanized variant of HFB6-5, human IgG1 (hG1)) VH: QVQLVQSGAEVKKPGSSVKVSCKASGVNIKDTYMYWVRQAPGQGLEWIGRIDPANGYARYAQKFQGRATITADESTSTAYMELSSLRSEDTAVYYCAVYDGYYESFDVWGQGTLVTVSS VL: DVVMTQSPLSLPVTLGQPASISCRSSQSLLDSDGKTYLNWLQQRPGQSPRRLIYLVSKRDSGVPDRFSGSGSGTDFTLKISRVEAEDLGVYYCWQGTLFPRTFGQGTKLEIK |
| binds | HFB6-5hz13-hG1 (antibody, human IgG1, V domains shown, Humanized variant of HFB6-5, human IgG1 (hG1)) VH: QVQLVQSGAEVKKPGSSVKVSCKASGVNIKDTYMYWVRQAPGQGLEWIGRIDPANGYARYAQKFQGRATITADESTSTAYMELSSLRSEDTAVYYCAVYDGYYESFDVWGQGTLVTVSS VL: EIVLTQSPGTLSVSPGERATISCRSSQSLLDSDGKTYLNWLQQKPGQAPRRLIYLVSKRDTGVPDRFSGSGSGTDFTLTISRVEPEDFAVYYCWQGTLFPRTFGQGTKLEIK |
| binds | HFB6-5hz14-hG1 (antibody, human IgG1, V domains shown, Humanized variant of HFB6-5, human IgG1 (hG1)) VH: QVQLVQSGAEVKKPGASVKVSCKASGVNIKDTYMYWVRQAPGQGLEWIGRIDPANGYTRYAQKFQGRATITADTSTSTVYMELSSLRSEDTAVYYCAVYDGYYESFDVWGQGTLVTVSS VL: EIVLTQSPGTLSVSPGERATISCRSSQSLLDSDGKTYLNWLQQKPGQAPRRLIYLVSKRDTGVPDRFSGSGSGTDFTLTISRVEPEDFAVYYCWQGTLFPRTFGQGTKLEIK |
| binds | HFB6-5hz2-hG1 (antibody, human IgG1, V domains shown, Humanized variant of HFB6-5, human IgG1 (hG1)) VH: QVQLVQSGAEVKKPGASVKVSCKASGVNIKDTYMYWVRQAPGQGLEWIGRIDPANGYTRYAQKFQGRATITADTSTSTVYMELSSLRSEDTAVYYCAVYDGYYESFDVWGQGTLVTVSS VL: DIQMTQSPSSLSASVGDRVTITCRSSQSLLDSDGKSYLNWLQQKPGKAPKRLIYLVSKLDSGVPSRFSGSGSGTDFTLTISSLQPEDFATYYCWQGTLFPRTFGQGTKLEIK |
| binds | HFB6-5hz8-hG1 (antibody, human IgG1, V domains shown, Humanized variant of HFB6-5, human IgG1 (hG1)) VH: QVQLVQSGAEVKKPGASVKVSCKASGVNIKDTYMYWVRQAPGQGLEWIGRIDPANGYTRYAQKFQGRATITADTSTSTVYMELSSLRSEDTAVYYCAVYDGYYESFDVWGQGTLVTVSS VL: DVVMTQSPLSLPVTLGQPASISCRSSQSLLDSDGKTYLNWLQQRPGQSPRRLIYLVSKRDSGVPDRFSGSGSGTDFTLKISRVEAEDLGVYYCWQGTLFPRTFGQGTKLEIK |
| binds | HFB6-5hz4-hG1 (antibody, human IgG1, V domains shown, Humanized variant of HFB6-5, human IgG1 (hG1)) VH: EVQLVESGGGLVQPGGSLKLSCAASGVNIKDTYMYWVRQASGKGLEWIGRIDPANGYTRYAASFKGRATISADDSKNTAYLQLNSLKTEDTAVYYCAVYDGYYESFDVWGQGTLVTVSS VL: DIQMTQSPSSLSASVGDRVTITCRSSQSLLDSDGKSYLNWLQQKPGKAPKRLIYLVSKLDSGVPSRFSGSGSGTDFTLTISSLQPEDFATYYCWQGTLFPRTFGQGTKLEIK |
